The source of these data is patent publication US20240327542A1 (published 2024).

The target in the assay is RAS-AMG510 (human;). Briefly: cell binding (Raji), flow cytometry; apparent KD. In general terms: In flow cytometry, cells or beads pass a laser one at a time.
RAS-AMG510 (human;), sequence (P61769 whole entry): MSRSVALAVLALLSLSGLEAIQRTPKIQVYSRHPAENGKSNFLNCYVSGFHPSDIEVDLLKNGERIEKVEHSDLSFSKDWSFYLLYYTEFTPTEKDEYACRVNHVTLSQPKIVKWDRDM

B1: AMRA11-2 hIgG1 (antibody, V domains shown)
VH: EVQLVESGGGLVQPGGSLRLSCAASGFTISSSSIHWVRQAPGKGLEWVASISSYSSSTYYADSVKGRFTISADTSKNTAYLQMNSLRAEDTAVYYCARYPYGWGWGGSGLDYWGQGTLVTVSS
VL: DIQMTQSPSSLSASVGDRVTITCRASQSVSSAVAWYQQKPGKAPKLLIYSASSLYSGVPSRFSGSRSGTDFTLTISSLQPEDFATYYCQQSSSSLITFGQGTKVEIKR
For the molecule B1, the Kd amounted to 45 nM.

B2: AMRA3-18 hIgG1 (antibody, V domains shown)
VH: EVQLVESGGGLVQPGGSLRLSCAASGFTVSYSSIHWVRQAPGKGLEWVASISSSSGYTSYADSVKGRFTISADTSKNTAYLQMNSLRAEDTAVYYCARYAWWAHGLDYWGQGTLVTVSS
VL: DIQMTQSPSSLSASVGDRVTITCRASQSVSSAVAWYQQKPGKAPKLLIYSASSLYSGVPSRFSGSRSGTDFTLTISSLQPEDFATYYCQQGSYTYRLITFGQGTKVEIKR
Take B2: the Kd was found to be 57 nM.

B3: AMRA3-7 hIgG1 (antibody, V domains shown)
VH: EVQLVESGGGLVQPGGSLRLSCAASGFTFSSYSIHWVRQAPGKGLEWVASIYSSYGYTSYADSVKGRFTISADTSKNTAYLQMNSLRAEDTAVYYCARGGWYPAMDYWGQGTLVTVSS
VL: DIQMTQSPSSLSASVGDRVTITCRASQSVSSAVAWYQQKPGKAPKLLIYSASSLYSGVPSRFSGSRSGTDFTLTISSLQPEDFATYYCQQISYVYSLITFGQGTKVEIKR
As to B3, the Kd worked out at 20 nM.
